Measurements reported in patent US20250019439A1 (Adimab, published 2025).

Experiments:
ADI-70326 = target: T1, ADI-70326; test: SPR Carterra avidity, yeast anti-ID
T1 construct: anti-CD3 antibody made in CHO cells, captured by anti-human Fc
Protocol: (§1) Kinetic analysis was conducted at 25° C. in an HBSTE running buffer system (Carterra Cat #3630) using a Carterra LSA (Carterra USA, Salt Lake City, UT). The sample compartment was maintained at 20° C. for the duration of each experiment.
(§2) For antibody capture experiments, a goat anti-human Fc antibody (Jackson ImmunoResearch) was covalently coupled to an HC30M sensor chip surface via standard amine coupling (1:1 EDC:NHS) and then blocked with ethanolamine (1.0 M, pH 8.5). Covalent coupling steps were performed in 25 mM MES buffer (Carterra, Cat #3625) plus 0.05% Tween20. The anti-CD3 antibodies (100 nM in running buffer) were flowed over discrete regions of interest on the chip surface for 5 minutes. […] Dissociation of the anti-idiotype antibodies was monitored for 300s. Several blank buffer samples were injected over the entire chip surface at the start of each non-regenerative kinetic cycle. The preceding blank buffer injection was used for blank surface subtraction. At the end of each non-regenerative kinetic cycle, all surfaces were regenerated via two 30s injections of 10 mM glycine, pH 1.7.
(§3) For data processing and fitting, sensorgrams were double reference subtracted with a baseline drift correction of 4 RU. Sensorgrams were y-aligned and baseline corrected, filtered and cropped to include only the association and dissociation steps. Data was fitted to a 1:1 binding model using Carterra Kinetics Data Analysis software version 1.7.1.3055.

ADI-70327 = target: T2, ADI-70327; test: SPR Carterra avidity, yeast anti-ID
T2 construct: anti-CD3 antibody made in CHO cells, captured by anti-human Fc
Protocol: as §1, §2, §3

ADI-70330 = target: T3, ADI-70330; test: SPR Carterra avidity, yeast anti-ID
T3 construct: anti-CD3 antibody made in CHO cells, captured by anti-human Fc
Protocol: as §1, §2, §3

ADI-67450 = target: T4, ADI-67450; test: SPR Carterra avidity, yeast anti-ID
T4 construct: anti-CD3 antibody made in CHO cells, captured by anti-human Fc
Protocol: as §1, §2, §3

ADI-67445 = target: T5, ADI-67445; test: SPR Carterra avidity, yeast anti-ID
T5 construct: anti-CD3 antibody made in CHO cells, captured by anti-human Fc
Protocol: as §1, §2, §3

ADI-67447 = target: T6, ADI-67447; test: SPR Carterra avidity, yeast anti-ID
T6 construct: anti-CD3 antibody made in CHO cells, captured by anti-human Fc
Protocol: as §1, §2, §3

ADI-26909 = target: T7, ADI-26909; test: SPR Carterra avidity, yeast anti-ID
T7 construct: anti-CD3 antibody made in CHO cells, captured by anti-human Fc
Protocol: as §1, §2, §3

ADI-26913 IgG = target: T8, ADI-26913 IgG; test: SPR Carterra avidity, yeast anti-ID
T8 construct: anti-CD3 IgG
Protocol: as §1, §2, §3

ADI-26916 IgG = target: T9, ADI-26916 IgG; test: SPR Carterra avidity, yeast anti-ID
T9 construct: anti-CD3 IgG
Protocol: as §1, §2, §3

ADI-26912 = target: T10, ADI-26912; test: SPR Carterra avidity, yeast anti-ID
T10 construct: anti-CD3 antibody made in CHO cells, captured by anti-human Fc
Protocol: as §1, §2, §3

ADI-26924 = target: T11, ADI-26924; test: SPR Carterra avidity, yeast anti-ID
T11 construct: anti-CD3 antibody made in CHO cells, captured by anti-human Fc
Protocol: as §1, §2, §3

ADI-26915 = target: T12, ADI-26915; test: SPR Carterra avidity, yeast anti-ID
T12 construct: anti-CD3 antibody made in CHO cells, captured by anti-human Fc
Protocol: as §1, §2, §3

ADI-48576 = target: T13, ADI-48576; test: SPR Carterra avidity, yeast anti-ID
T13 construct: pH-dependent anti-CD3 antibody made in CHO cells
Protocol: as §1, §2, §3

ADI-48587 = target: T14, ADI-48587; test: SPR Carterra avidity, yeast anti-ID
T14 construct: pH-dependent anti-CD3 antibody made in CHO cells
Protocol: as §1, §2, §3

ADI-48592 = target: T15, ADI-48592; test: SPR Carterra avidity, yeast anti-ID
T15 construct: pH-dependent anti-CD3 antibody made in CHO cells
Protocol: as §1, §2, §3

ADI-48650 = target: T16, ADI-48650; test: SPR Carterra avidity, yeast anti-ID
T16 construct: pH-dependent anti-CD3 antibody made in CHO cells
Protocol: as §1, §2, §3

ADI-74965 = target: T17, ADI-74965; test: SPR Carterra avidity, yeast anti-ID
T17 construct: pH-dependent anti-CD3 antibody made in CHO cells
Protocol: as §1, §2, §3

ADI-74966 = target: T18, ADI-74966; test: SPR Carterra avidity, yeast anti-ID
T18 construct: pH-dependent anti-CD3 antibody made in CHO cells
Protocol: as §1, §2, §3

ADI-74967 = target: T19, ADI-74967; test: SPR Carterra avidity, yeast anti-ID
T19 construct: pH-dependent anti-CD3 antibody made in CHO cells
Protocol: as §1, §2, §3

ADI-74968 = target: T20, ADI-74968; test: SPR Carterra avidity, yeast anti-ID
T20 construct: pH-dependent anti-CD3 antibody made in CHO cells
Protocol: as §1, §2, §3

ADI-76357 = target: T21, ADI-76357; test: SPR Carterra avidity, yeast anti-ID
T21 construct: anti-CD3 antibody made in CHO cells, captured by anti-human Fc
Protocol: as §1, §2, §3

ADI-76358 = target: T22, ADI-76358; test: SPR Carterra avidity, yeast anti-ID
T22 construct: anti-CD3 antibody made in CHO cells, captured by anti-human Fc
Protocol: as §1, §2, §3

ADI-76360 = target: T23, ADI-76360; test: SPR Carterra avidity, yeast anti-ID
T23 construct: anti-CD3 antibody made in CHO cells, captured by anti-human Fc
Protocol: as §1, §2, §3

ADI-76362 = target: T24, ADI-76362; test: SPR Carterra avidity, yeast anti-ID
T24 construct: anti-CD3 antibody made in CHO cells, captured by anti-human Fc
Protocol: as §1, §2, §3

CTL-62223 = target: T25, CTL-62223; test: SPR Carterra avidity, yeast anti-ID
T25 construct: also called mosunetuzumab
Protocol: as §1, §2, §3

ADI-22523 Fab = target: T26, ADI-22523 Fab; test: BLI; tip anti-ID IgG, solution ADI-22523 Fab
T26 construct: anti-CD3 Fab by papain digestion of the IgG
Protocol: (§4) ForteBio affinity measurements were performed generally as previously described (Estep et al., MAbs. 2013 5(2):270-8). Briefly, ForteBio affinity measurements were performed by loading antibody IgG or Fabs on-line onto AHC sensors. Sensors were equilibrated off-line in assay buffer for 30 minutes and then monitored on-line for 60 seconds for baseline establishment. For avid binding measurement, sensors with loaded antibodies were exposed to IgG or Fab solutions for 3 minutes, afterwards they were transferred to assay buffer for 3 minutes for off-rate measurement. Kinetics data were fit using a 1:1 binding model in the data analysis software provided by ForteBio to obtain equilibrium dissociation constant (KD=koff/kₒₙ) values. In each column, tip-immobilized antibodies are listed first and solution antibodies second.

ADI-22523 IgG = target: T27, ADI-22523 IgG; test: BLI; tip anti-ID IgG, solution ADI-22523 IgG
T27 construct: anti-CD3 IgG
Protocol: as §4

ADI-50024 = target: T28, ADI-50024; test: SPR Carterra avidity, yeast anti-ID, *koff limit
T28 construct: anti-CD3 antibody made in CHO cells, captured by anti-human Fc
Protocol: as §1, §2, §3

ADI-26906 IgG = target: T29, ADI-26906 IgG; test: SPR Carterra avidity, yeast anti-ID, *koff limit
T29 construct: anti-CD3 IgG
Protocol: as §1, §2, §3

ADI-26919 = target: T30, ADI-26919; test: SPR Carterra avidity, yeast anti-ID, *koff limit
T30 construct: anti-CD3 antibody made in CHO cells, captured by anti-human Fc
Protocol: as §1, §2, §3

ADI-26920 IgG = target: T31, ADI-26920 IgG; test: SPR Carterra avidity, yeast anti-ID, *koff limit
T31 construct: anti-CD3 IgG
Protocol: as §1, §2, §3

ADI-26921 IgG = target: T32, ADI-26921 IgG; test: SPR Carterra avidity, yeast anti-ID, *koff limit
T32 construct: anti-CD3 IgG
Protocol: as §1, §2, §3

ADI-26943 = target: T33, ADI-26943; test: SPR Carterra avidity, yeast anti-ID, *koff limit
T33 construct: anti-CD3 antibody made in CHO cells, captured by anti-human Fc
Protocol: as §1, §2, §3

ADI-76359 = target: T34, ADI-76359; test: SPR Carterra avidity, yeast anti-ID, *koff limit
T34 construct: anti-CD3 antibody made in CHO cells, captured by anti-human Fc
Protocol: as §1, §2, §3

ADI-76361 = target: T35, ADI-76361; test: SPR Carterra avidity, yeast anti-ID, *koff limit
T35 construct: anti-CD3 antibody made in CHO cells, captured by anti-human Fc
Protocol: as §1, §2, §3

T23 sequence (VH, as listed by the source, chain 1 of 2): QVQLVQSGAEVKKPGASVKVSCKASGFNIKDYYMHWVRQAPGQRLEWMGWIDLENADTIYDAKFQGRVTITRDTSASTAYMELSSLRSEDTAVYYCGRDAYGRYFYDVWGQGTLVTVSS
T23 sequence (VL, as listed by the source, chain 2 of 2): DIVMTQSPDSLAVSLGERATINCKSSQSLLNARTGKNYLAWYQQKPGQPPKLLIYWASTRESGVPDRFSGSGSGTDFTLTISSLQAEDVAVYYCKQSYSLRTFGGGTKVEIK
T1 sequence (VH, as listed by the source limits assumed, chain 1 of 2): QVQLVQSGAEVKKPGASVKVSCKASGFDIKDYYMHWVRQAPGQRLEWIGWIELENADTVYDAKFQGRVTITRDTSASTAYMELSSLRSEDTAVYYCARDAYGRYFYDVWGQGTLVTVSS
T1 sequence (VL, as listed by the source limits assumed, chain 2 of 2): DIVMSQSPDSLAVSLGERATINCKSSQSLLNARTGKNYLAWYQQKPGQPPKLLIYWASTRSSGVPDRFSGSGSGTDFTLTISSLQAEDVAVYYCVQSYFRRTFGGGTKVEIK
T12 sequence (VH, as listed by the source, chain 1 of 2): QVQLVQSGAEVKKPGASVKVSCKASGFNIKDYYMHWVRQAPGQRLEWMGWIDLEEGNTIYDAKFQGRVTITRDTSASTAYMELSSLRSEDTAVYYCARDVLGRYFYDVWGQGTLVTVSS
T12 sequence (VL, as listed by the source, chain 2 of 2): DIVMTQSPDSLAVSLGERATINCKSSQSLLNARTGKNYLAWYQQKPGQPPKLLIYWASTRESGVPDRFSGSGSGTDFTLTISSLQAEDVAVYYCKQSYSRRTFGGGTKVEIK
T27 sequence (VH, as listed by the source limits assumed, chain 1 of 2): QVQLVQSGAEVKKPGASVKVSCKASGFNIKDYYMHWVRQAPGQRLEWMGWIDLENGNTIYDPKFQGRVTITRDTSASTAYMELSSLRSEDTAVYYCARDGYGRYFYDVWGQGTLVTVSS
T27 sequence (VL, as listed by the source limits assumed, chain 2 of 2): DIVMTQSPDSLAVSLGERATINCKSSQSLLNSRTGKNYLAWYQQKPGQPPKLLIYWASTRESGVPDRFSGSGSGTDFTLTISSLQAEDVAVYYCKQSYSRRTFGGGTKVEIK
T2 sequence (VH, as listed by the source limits assumed, chain 1 of 2): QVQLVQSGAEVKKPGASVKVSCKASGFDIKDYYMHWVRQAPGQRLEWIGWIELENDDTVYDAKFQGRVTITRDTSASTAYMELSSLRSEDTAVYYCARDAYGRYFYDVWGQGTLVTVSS
T16 sequence (VH, as listed by the source, chain 1 of 2): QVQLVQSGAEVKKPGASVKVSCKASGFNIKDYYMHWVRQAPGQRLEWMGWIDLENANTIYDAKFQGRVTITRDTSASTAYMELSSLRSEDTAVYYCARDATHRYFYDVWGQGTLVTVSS
T16 sequence (VL, as listed by the source, chain 2 of 2): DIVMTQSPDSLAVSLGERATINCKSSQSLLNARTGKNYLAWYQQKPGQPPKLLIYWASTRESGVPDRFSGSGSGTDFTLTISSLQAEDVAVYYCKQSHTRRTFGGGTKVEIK
T5 sequence (VH, as listed by the source limits assumed, chain 1 of 2): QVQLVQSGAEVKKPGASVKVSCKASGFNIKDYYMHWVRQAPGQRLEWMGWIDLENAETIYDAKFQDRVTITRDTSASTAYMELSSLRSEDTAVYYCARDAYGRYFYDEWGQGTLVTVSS
T17 sequence (VH, as listed by the source, chain 1 of 2): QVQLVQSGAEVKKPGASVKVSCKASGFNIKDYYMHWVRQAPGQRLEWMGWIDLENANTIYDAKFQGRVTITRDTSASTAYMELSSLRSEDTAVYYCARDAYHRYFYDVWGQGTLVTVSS
T17 sequence (VL, as listed by the source, chain 2 of 2): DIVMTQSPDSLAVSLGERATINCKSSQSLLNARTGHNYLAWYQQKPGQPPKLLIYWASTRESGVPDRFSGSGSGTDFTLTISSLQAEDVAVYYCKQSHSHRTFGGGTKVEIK
T20 sequence (VL, as listed by the source, chain 2 of 2): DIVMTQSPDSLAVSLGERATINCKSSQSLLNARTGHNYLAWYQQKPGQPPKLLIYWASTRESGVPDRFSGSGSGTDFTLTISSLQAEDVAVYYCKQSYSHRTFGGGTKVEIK
T22 sequence (VH, as listed by the source, chain 1 of 2): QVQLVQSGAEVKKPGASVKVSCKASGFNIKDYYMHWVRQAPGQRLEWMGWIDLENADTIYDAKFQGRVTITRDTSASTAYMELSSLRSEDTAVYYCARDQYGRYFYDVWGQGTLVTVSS
T21 sequence (VH, as listed by the source, chain 1 of 2): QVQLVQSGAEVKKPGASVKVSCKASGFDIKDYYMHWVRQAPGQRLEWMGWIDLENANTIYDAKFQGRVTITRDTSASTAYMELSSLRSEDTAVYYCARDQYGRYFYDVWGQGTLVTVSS
T11 sequence (VH, as listed by the source, chain 1 of 2): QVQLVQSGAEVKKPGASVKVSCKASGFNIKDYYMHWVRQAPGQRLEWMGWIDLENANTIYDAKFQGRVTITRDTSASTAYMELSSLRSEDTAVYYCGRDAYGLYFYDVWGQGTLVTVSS
T24 sequence (VH, as listed by the source, chain 1 of 2): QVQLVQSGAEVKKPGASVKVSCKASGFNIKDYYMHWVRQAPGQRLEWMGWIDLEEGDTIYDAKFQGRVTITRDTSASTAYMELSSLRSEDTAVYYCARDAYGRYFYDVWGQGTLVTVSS
T15 sequence (VH, as listed by the source, chain 1 of 2): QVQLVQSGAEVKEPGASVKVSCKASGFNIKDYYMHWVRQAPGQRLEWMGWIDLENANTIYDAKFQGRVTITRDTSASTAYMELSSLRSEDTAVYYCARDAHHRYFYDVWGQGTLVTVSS
T15 sequence (VL, as listed by the source, chain 2 of 2): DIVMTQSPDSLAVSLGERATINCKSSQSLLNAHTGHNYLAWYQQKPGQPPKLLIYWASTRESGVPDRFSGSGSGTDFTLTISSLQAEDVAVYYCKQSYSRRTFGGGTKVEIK
T19 sequence (VH, as listed by the source, chain 1 of 2): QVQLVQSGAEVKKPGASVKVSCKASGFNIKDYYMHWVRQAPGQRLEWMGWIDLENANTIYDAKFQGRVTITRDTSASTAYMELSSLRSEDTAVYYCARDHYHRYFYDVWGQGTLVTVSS
T19 sequence (VL, as listed by the source, chain 2 of 2): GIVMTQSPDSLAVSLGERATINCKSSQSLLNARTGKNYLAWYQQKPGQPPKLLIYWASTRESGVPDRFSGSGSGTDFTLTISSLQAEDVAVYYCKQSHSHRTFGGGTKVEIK

- Kd (ADI-70326): 4.1 nM
- binding result (ADI-70327): binds
- Kd (ADI-70330): 0.47 nM
- Kd (ADI-67450): 0.63 nM
- Kd (ADI-67445): 0.34 nM
- Kd (ADI-67447): 0.26 nM
- Kd (ADI-26909): 0.1 nM
- Kd (ADI-26913 IgG): 0.1 nM
- Kd (ADI-26916 IgG): 0.14 nM
- binding result (ADI-26912): binds
- Kd (ADI-26924): 0.14 nM
- Kd (ADI-26915): 15 nM
- Kd (ADI-48576): 31 nM
- Kd (ADI-48587): 1.8 nM
- Kd (ADI-48592): 19 nM
- binding result (ADI-48650): binds
- binding result (ADI-74965): binds
- Kd (ADI-74966): 0.35 nM
- Kd (ADI-74967): 0.21 nM
- Kd (ADI-74968): 0.83 nM
- Kd (ADI-76357): 0.097 nM
- Kd (ADI-76358): 1.1 nM
- Kd (ADI-76360): 0.15 nM
- Kd (ADI-76362): 0.41 nM
- Kd (CTL-62223): 1.2 nM
- Kd (ADI-22523 Fab): 7.81 nM
- Kd (ADI-22523 IgG): 0.54 nM
- Kd (ADI-50024): 0.17 nM
- Kd (ADI-26906 IgG): 0.13 nM
- Kd (ADI-26919): 0.082 nM
- Kd (ADI-26920 IgG): 0.11 nM
- Kd (ADI-26921 IgG): 0.073 nM
- Kd (ADI-26943): 0.099 nM
- Kd (ADI-76359): 0.053 nM
- Kd (ADI-76361): 0.044 nM
B1: ADI-34135 (antibody, V domains shown)
VH: QVQLVQSGAEVKKPGSSVKVSCKASGGTFSSYAISWVRQAPGQGLEWMGGIIPIFGTANYAQKFQGRVTITADESTSTAYMELSSLRSEDTAVYYCARGAPNYYGSGGYDDGWFDPWGQGTLVTVSS
VL: EIVMTQSPGTLSLSPGERATLSCRASQSVSSSYLAWYQQKPGQAPRLLIYGASSRATGIPDRFSGSGSGTDFTLTISRLEPEDFAVYYCQQFGRYPTFGGGTKVEIK
notes: anti-ID IgG
